Measurements reported in patent US7943569B2, “Composition and method for providing localized delivery of a therapeutic agent” (The Board of Trustees of the University of Illinois, priority 2005, dated 2011).
Where two headings read alike, the source gives them in different places. Primed or numbered codes have the meaning given here. Ends that are not written are not given here. * marks the point of attachment. fluorescein = Lys* = fluorescein containing lysine; fluorescein″ = fluorescein-labelled lysine (Lys*)

How the values were obtained:
MMP-2 [1] = molecular target: T1, MMP-2 (Homo sapiens, UniProt P08253); assay: Peptide cleavage by activated MMP-2, HPLC; assay type: biochemical; conditions: for Km / Vmax / kcat: MMP-2 10 nM, protease buffer pH 7.4
T1 construct: purchased CALBIOCHEM (San Diego, Calif.)
T1 sequence (P08253 110-660): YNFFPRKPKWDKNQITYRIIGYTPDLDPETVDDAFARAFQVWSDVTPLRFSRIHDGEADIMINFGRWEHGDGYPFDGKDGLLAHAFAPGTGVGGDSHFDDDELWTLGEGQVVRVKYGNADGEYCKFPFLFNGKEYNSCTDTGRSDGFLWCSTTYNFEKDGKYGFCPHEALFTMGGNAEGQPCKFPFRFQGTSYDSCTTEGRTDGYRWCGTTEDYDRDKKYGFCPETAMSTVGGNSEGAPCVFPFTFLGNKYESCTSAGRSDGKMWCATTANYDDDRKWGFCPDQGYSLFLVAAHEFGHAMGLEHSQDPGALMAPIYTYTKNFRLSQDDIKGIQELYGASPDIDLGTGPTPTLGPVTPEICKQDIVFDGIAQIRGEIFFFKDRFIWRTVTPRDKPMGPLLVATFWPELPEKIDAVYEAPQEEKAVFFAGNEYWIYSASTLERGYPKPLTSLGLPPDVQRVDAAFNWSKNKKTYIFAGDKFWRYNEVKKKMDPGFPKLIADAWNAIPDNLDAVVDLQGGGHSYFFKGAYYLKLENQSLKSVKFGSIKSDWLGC
Protocol: (§1) Prospective MMP substrate peptides, Lys*-Pro-Ala-Gly-Leu-Leu-Gly-Cys (SEQ ID NO:2), Lys*-Ala-Gly-Leu-Leu-Cys (SEQ ID NO:32), and Lys*-Gly-Leu-Cys (SEQ ID NO:33), were dissolved in a protease buffer containing Tris-HCl (50 mM), NaCl (0.2 M), CaCl2.2H2O (10 mM), BRIJ-35 (0.05%) and ZnSO4.7H2O (50 μM) (pH=7.4). Activated MMP-2 or MMP-9 was added to the peptide solution at a final concentration of 10 nM. At predetermined time intervals, the reaction was stopped by adding EDTA solution (25 mM). Samples were analyzed using reverse phase high pressure liquid chromatography (HPLC). The HPLC system was composed of a gradient pump connected to a scanning fluorescence detector and a photodiode array detector. Peptides were separated on a ZORBAX Extend-C18 (80 Å, 3.6 μm, 4.6 mm×150 mm) column (Agilent Technologies, Palo Alto, Calif.) using a gradient of 30%-70% of 0.1% trifluoroacetic acid in acetonitrile against 0.1% trifluoroacetic acid in water over a period of 15 minutes at a flow rate of 1 mL/minute. The expected cleaved fragments, Lys*-Pro-Ala-Gly (SEQ ID NO:34), Lys*-Ala-Gly, and Lys*-Gly, were synthesized to confirm HPLC retention times. The HPLC retention time of each fragment was compared to that of the cleaved fragment and the intact peptide using the HPLC conditions described above.

MMP-9 = molecular target: T2, MMP-9 (Homo sapiens, UniProt P14780); assay: Peptide cleavage by activated MMP-9, HPLC; assay type: biochemical; conditions: for Km / Vmax / kcat: MMP-9 10 nM, protease buffer pH 7.4
T2 construct: purchased CALBIOCHEM (San Diego, Calif.)
T2 sequence (P14780 107-707 limits assumed): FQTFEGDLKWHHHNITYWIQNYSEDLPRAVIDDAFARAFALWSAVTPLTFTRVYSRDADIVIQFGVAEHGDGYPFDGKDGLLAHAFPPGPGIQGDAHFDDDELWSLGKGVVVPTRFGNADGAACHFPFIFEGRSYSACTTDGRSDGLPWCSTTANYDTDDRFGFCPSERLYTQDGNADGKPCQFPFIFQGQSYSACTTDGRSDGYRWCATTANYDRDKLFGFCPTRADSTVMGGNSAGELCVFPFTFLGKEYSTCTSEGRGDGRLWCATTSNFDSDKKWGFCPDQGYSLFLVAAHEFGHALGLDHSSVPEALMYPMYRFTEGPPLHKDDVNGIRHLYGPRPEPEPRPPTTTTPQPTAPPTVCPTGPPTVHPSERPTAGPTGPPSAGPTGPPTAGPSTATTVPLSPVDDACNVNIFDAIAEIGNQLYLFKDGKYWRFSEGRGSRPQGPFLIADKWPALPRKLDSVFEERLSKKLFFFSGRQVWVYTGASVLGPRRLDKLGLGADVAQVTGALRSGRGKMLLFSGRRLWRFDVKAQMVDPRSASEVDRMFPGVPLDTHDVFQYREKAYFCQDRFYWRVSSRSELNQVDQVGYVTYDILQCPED
Protocol: as §1

[2] = tested on: malignant glioma cell line (U-87MG); assay: Cell viability of U-87MG glioma cells, modified MTT assay, 24 hours; assay type: cell-based; conditions: U-87MG cell viability (FIG. 1)
Protocol: As a model for cancer, the malignant glioma cell line (U-87MG, ATCC #HTB-14) was grown and maintained in Eagles Minimum Essential Media with 10% fetal bovine serum, 1% penicillin/streptomycin, sodium pyruvate (110 mg/L), L-Glutamine (292 mg/L), and nonessential amino acids at 37° C. in 5% CO2. One day prior to the test, cells were plated at 50,000 cells/mL in supplemented media on 96-well plates. Peptides at different concentrations were incubated with cells for 24 hours. Cell viability, with respect to the untreated control, was determined using a modified MTT assay (CELL TITER […] 96® Aqueous One Solution Cell Proliferation Assay; PROMEGA, Madison, Wis.) (Barltrop, et al. (1991) Bioorg. Med. Chem. Lett. 1:661).
To synthesize Pt-complexes, peptides were dissolved in water and equimolar amounts of potassium tetrachloroplatinate (K2PtCl4) (Acros Organics, Morris Plains, N.J.) were added to each peptide solution. The solutions were stirred for 20 hours and lyophilized.

MMP-2 [3] = molecular target: T1, MMP-2; conditions: MMP-2, Turk et al. (2001); cited from earlier work

Compound | Km (MMP-2 [1]) | Vmax (MMP-2 [1]) | kcat (MMP-2 [1]) | cleavage site (MMP-2 [1]; cleaved by MMP-2, HPLC comparison with synthesized fragment) | Km (MMP-9) | Vmax (MMP-9) | kcat (MMP-9) | cleavage site (MMP-9; cleaved by MMP-9, HPLC comparison with synthesized fragment) | IC50 [2] | cleavage site (MMP-2 [3])
Lys*-Pro-Ala-Gly-Leu-Leu-Gly-Cys (K(fluorescein)PAGLLGC) [prospective MMP substrate peptide with fluorescein containing lysine (Lys*)] | 1 ± 0.5 mM | 270 ± 120 (M/s) × 10^−9 | 10.7 ± 4.8 s⁻¹ | cleaved between glycine and leucine | 400 ± 100 µM | 240 ± 50 (M/s) × 10^−9 | 9.6 ± 2.1 s⁻¹ | cleaved between glycine and leucine | – | –
Lys*-Ala-Gly-Leu-Leu-Cys (K(fluorescein)AGLLC) [prospective MMP substrate peptide with fluorescein containing lysine (Lys*)] | 1.4 ± 0.4 mM | 6.02 ± 2.1 (M/s) × 10^−9 | 0.24 ± 0.08 s⁻¹ | – | 160 ± 100 µM | 0.99 ± 0.2 (M/s) × 10^−9 | 0.04 ± 0.01 s⁻¹ | – | – | –
[Cl][Pt-2]([Cl])([Cl])[Cl].[K+].[K+] [K2PtCl4, potassium tetrachloroplatinate] | – | – | – | – | – | – | – | – | 70.7 ± 15 µM | –
N.N.[Cl][Pt][Cl] [cisplatin] | – | – | – | – | – | – | – | – | 46.9 ± 15 µM | –
Lys*-Gly-Leu-Cys (K(fluorescein″)GLC) [prospective MMP substrate peptide with fluorescein containing lysine (Lys*)] | 0.081 ± 0.02 mM | 0.88 ± 0.1 (M/s) × 10^−9 | 0.035 ± 0.006 s⁻¹ | – | 600 ± 100 µM | 5.3 ± 1 (M/s) × 10^−9 | 0.21 ± 0.04 s⁻¹ | – | – | –
GPAGLLG [parent peptide from which the three peptides were designed] | – | – | – | – | – | – | – | – | – | cleaved between glycine and leucine
